Tests used:
[1] = molecular target: GTP-γS-tubulin-dimer (porcine brain tubulin) (porcine) (UniProt P02550); experiment: SEC; size-exclusion chromatography at 4 °C; tubulin with the GTP analog GTP-γS; 1:1 mixture of each 1 mM (so in the source) CP525 and tubulin-dimer; fractions checked by SDS-PAGE
[2] = molecular target: GTP-γS-tubulin-dimer (porcine brain tubulin), P02550;Q767L7; experiment: DLS; conditions: room temperature; 1:1 mixture
[3] = molecular target: GTP-γS-tubulin-dimer (porcine brain tubulin), P02550;Q767L7; experiment: SEC-MALS

Substance	stoichiometry N (CP525:tubulin-dimer) [1]	other: %Polyd (polydispersity of the mixture) [2] [%]	other: MW-R (of the mixture) [2] [kDa]	other: Rh (hydrodynamic radius of the mixture) [2] [nm]	other: Molar mass of the mixture, Peak 1 [3] [kDa]	other: Molar mass of the mixture, Peak 2 [3] [kDa]
CP525 (7 x His-tag and human CRMP2 residues 1-525) (from UniProt Q16555 1-525) (domain or fragment)	1					
CP525 (7 x His-tag and human CRMP2 residues 1-525) (from UniProt Q16555) K483A; R485A; R487A		64.9	538	8.8	95.9	86.2
CP525 (7 x His-tag and human CRMP2 residues 1-525) (from UniProt Q16555) T246A; N247A		52	524	8.6	214	113

— paper PMC5587665
